Experiment: yeast display, Sf9 membrane polyspecificity reagent, FACS + sequencing; frameworks hold sequencing errors
Outline: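 Galactose-induced (36–48 hours) yeast carrying a synthetic nanobody display library were exposed to 10% biotinylated, detergent-solubilized Sf9 membrane reagent at 4 °C for 1 hour. FACS followed streptavidin microbead enrichment, using low and high (top ~1%) gates for expression (anti-HA) and reagent binding (streptavidin). Colony PCR, MiSeq 2 × 250 sequencing and CDR-length filtering followed. Labels for polyreactivity reflect the gate of origin.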

Sequence | polyreactivity (PSR sort gate)
QVQLVESGGGLVQAGGSLRLSCAPSRFIFGHYAMGWYRQAPGKERELVAGINSSGGSTHYADSVKGRFTISRDNAKNTVYLQMNSLKPEDTAVYYCAADVYRFYAGSRYYYWGQGTQVTVSS | low polyreactivity
QVQLVESGGGLVQAGGSLRLSCAPYGLTFYGYTMGWYIQAPGKQRELVASISWSGGNKYYADSVKGRFTISRDKAKNSVYLQMNSLKPEDTAVYYCAAEHWTYDCVDYWGQGTQVTVSW | low polyreactivity
QVQLVESGGGLVQAGGSLRLSCASGRIFKKNALGWYRQAPGKERELVAGITISGGRTYYADSVKGRFTISRDNAKNTVYLQMNSLKPEDTAVYYCNAGPDRRVSYYRLLDHWGQGTQVTVSS | low polyreactivity
QVQLVESGGGLVQAGGSLRLSCASSGFIFFYYTKGWYRQAPGKERELVAAISTGGSTYYADSVKGRFTISRDNAKNTVYLQMNSLKPEDTAVYYCAALYWYEYTYLEYDYWGQGTQVTVSS | high polyreactivity
QVQLVESGGGLVQAGGSLRLSCASSGFTFKDYAMGWYRQAPGKERELVAAISYSGGSTYYADSVKGRFTLSRDNAKNTVYLQMNSLKPEDTAVYYCARYFRRSAIYTRPRMDYWGQGTQVTVSS | high polyreactivity
QVQLVESGGGLVQAGGSLRLSCASSGFTFSIYAMGWYRQAPGKERELVAAISSSGGITYYADAVKGRFTISRDNAKNTVYLQMKSLKPEDTAVYYWNKYFKTFYVSYLHDYWGQGTQVSVSS | high polyreactivity
QVQLVESGGGLVQAGGSLRLSCASSGFTFWRNAMGWYRQAPGKERELVAAINWSGGSTYYADSVKGRFTISRDNAKNTVYLQMNSLKPEDTAVYYCAADLSSRGISQDDYWGQCTQVTVSS | high polyreactivity
QVQLVESGGGLVQAGGSLRLSCASSGFTFWTYDMGWYRQAPGKERELVAAIDSGGSTYYADSVKGRFTISRDNAKNTVYLQMNSLKPEDTAVYYCNAGPSVTSGYDYDYWGQGTQVTVSS | low polyreactivity
QVQLVESGGGLVQAGGSLRLSCASSGIILYYYVMGWYRQAPGKERELVAAINRSGTSTYYADSVKGRFTISRDNAKNTVYLQMNSLKPEDTAVYYCAAERYWSGGVFDYDYWGQGTQVTVSS | high polyreactivity
QVQLVESGGGLVQAGGSLRLSCASSGITFDYYAMGWYRQAPGKERELVASISSDSSTYYADSVKGRFTISRDNAKNTVYLQMNSLKPEDTAVYYCNAGDTTFPFYYWGQGTQVTVSS | low polyreactivity
QVQLVESGGGLVQAGGSLRLSCASSGITFTFYVMGWYRQAPGKERELVAAISSGGGRTYYADSVKGRFTISRDNAKNTVYLQMNSLKPEDTAVYYCNAALYHDSEYNYWGQGTQVSVSS | high polyreactivity
QVQLVESGGGLVQAGGSLRLSCASSGKIFLSYAMGWYRQAPGKERELVAGISASGGRTYYADSVKGRFTISRDNAKNTVYLQMNSLKPEDTAVYYCNADTTPQGNVRDGYWGQGTQVTVSS | high polyreactivity
QVQLVESGGGLVQAGGSLRLSCASSGLILFYNAMGWYRQAPGKERELVATIRRGGTTYYADSVKGRFTISRDNAKNTVYLQMNSLKPEDTAVYYCAKESLYQYDYWGQGTQVTVSS | low polyreactivity
QVQLVESGGGLVQAGGSLRLSCASSGLTFELYAMGWYRQAPGKERELVAAITWSGGRTYYADSVKGRFTISRDNAKNTVYLQMNSLKPEDTAVYYCAADVYPGYVGSQEYDYWGQGTQVTVSS | low polyreactivity
QVQLVESGGGLVQAGGSLRLSCASSGLTLQYYAMGWYRQAPGKERELVAAITYSGGSTYYADSVKGRFTISRDNAKNTVYLQRNSLKPEDTGVYYCAKVPVRSGGTLYDYWGQGTQVTVSS | low polyreactivity
QVQLVESGGGLVQAGGSLRLSCASSGRIFGSYAMGWYRQAPGKERELVAGISKSGTSTYYADSVKGRFTISRDNAKNTVYLLMNSLKPEDTADYYCAKRFDSTKAKYYYWGQGTQGTVSS | high polyreactivity

Sequence | polyreactivity (PSR sort gate)
QVQLVESGGGLVQAGGSLRLSCASSGRIFGYYVRGWYRQAPGTERELVATISRVGTTNYADSVKGRFTISRDNAKNSVYLPMNSLKPEDTAVYYCNADYTGHRGGNDYWGQGTQVTVSS | low polyreactivity
QVQLVESGGGLVQAGGSLRLSCASSGRIFPWNTMGWYRQAPGKERELVAGINNGDRTYYADSVKGRFTISRDNAKNRVYLQMNSLKPDETAVYYCARDDNPIYSGVTYDSWGQGTQVSVSS | low polyreactivity
QVQLVESGGGLVQAGGSLRLSCASSGRIFSFYAMGWYRQAPGKERELVAAISWNSGRTYYADSVKGRFTISRDNAKNTVYLQMNSLKPEDTAVYYCAAPFSAYYGDDYWGQGTQVTVSS | low polyreactivity
QVQLVESGGGLVQAGGSLRLSCASSGRIFYYYAMGWYRQAPGKEREFVARNRSSGGSTYADSVKGRFTISRDNAKNTVYLQMNSLKPEDTAVYYCARDGYTAVEYDYWGQGTQVTVSS | low polyreactivity
QVQLVESGGGLVQAGGSLRLSCASSGRNFQKYAMGWYRQAPGKERELVAAISSGDSTYADSVKGRFTISRDNAKNTVYFQMNSLKPEDTAVYYCAVDLYDPWWYSYIGEYEYWGQGTQVTVSS | low polyreactivity
QVQLVESGGGLVQAGGSLRLSCASSGRTFFKNALGWYRQSPGKERELVARISWNGGDSTYYADSVKGRFTISRDNAKITVFFQMISLKPEDTAVYYCAADTSYRQGGSRHGYVYWGQGTQVTVSS | low polyreactivity
QVQLVESGGGLVQAGGSLRLSCASSGRTFFPYAKGWYRQAPGKEREFVAAITKTDDSTYYADSVKGRFTISRDNAKNTVYLQMNSLKPEDTAVYYCNAGDTQIRFYYWGQGTQVTVSS | low polyreactivity
QVQLVESGGGLVQAGGSLRLSCASSGRTFGTYAMGSYRQAPGKDSELVAAITSGTRTYYADCVKGRFTISRDNAKNTVYLQMNSQKPEDTSVYYCAAGLVYRWSSTPRRLYYYWGQGTQVTVSS | high polyreactivity
QVQLVESGGGLVQAGGSLRLSCASSGRTFLRYAMGWYRQAPGKERELVAAISSRGGTTHYADSVKGRFTISRDNAKNTVYLPMNSLKPEDTAVYYCAAKSFLPYLKFGYWGQGTQVTVSS | high polyreactivity
QVQLVESGGGLVQAGGSLRLSCASSGRTFVNNAMGWSRQAPGKERELVAAISQSGSRTYYADSVKGRFTISRDNAKNTVYLQMNSLKPEDTAVYYCAARGARYSTSDYWGQGTQVTVSS | high polyreactivity
QVQLVESGGGLVQAGGSLRLSCASSGRTFYSYAMGWYRQAPGKERELVAGITWSGTSTYYADSVKGRFTISRDNWKNTVYLQMYSLKPEDTAVYYCAAATLYSGYDYWGQGTQVSVSS | low polyreactivity
QVQLVESGGGLVQAGGSLRLSCASSGRTFYSYVMGWYRQAHGKERELVAGISKRGGRTYYADSVKGRFTISRDNAKNTVYLEMYSLKPEDTAVYFCADDFPHTYWTFDFDYWGQGTQVTVSS | high polyreactivity
QVQLVESGGGLVQAGGSLRLSCASSGRTIYGSTKGWYRQAPGKESELGAAIRRSGGSTYYADSVKGRFTISRDNAKNTVYFQMNRLNPEDTAVYYCAASWRDIYRHYNVYPYDYWGQGTQVTVSS | low polyreactivity
QVQLVESGGGLVQAGGSLRLSCASSGSIFARYALGWYIQAPGKQRELVADINSTVSTNYADSVKGRFTISRDNAKNPVYLQMNSLKPEVTAVSYCAVDIVRGGRDSWGQGTQVTVSS | low polyreactivity
QVQLVESGGGLVQAGGSLRLSCASSGSIFEANDMGWYRQAPGKEREFVADIDANSGSTYYADSVKGRFTISRDNAKNTVNLQMNSLKPEDTADYYCNAQVYLHTAYDYWGQVTQVTVSS | low polyreactivity
QVQLVESGGGLVQAGGSLRLSCASSGSILGRYAMGWYRQAPGKERELVAAISGSGGSTYYADSVKGRFTISRDNAKNTVYLQMNSLKPEDTAVYYCAAERFIYYQIFEYWGQGTQVTVSS | high polyreactivity
